# Reference: patent US20220291215A1
# Tests used:
# [1] = target: DQ6 (DQA1*01:02-DQB1*06:02)-restricted influenza virus HA-specific TCR (DM2); test: flow cytometry, TCR-transduced primary T cells
# [2] = target: memory CD4+ T cells from DP4+ donors, unstimulated (a small subset; their TCRs); test: flow cytometry ex vivo; 122436 evts in the dimer- CD4+ gate
# [3] = target: memory CD4+ T cells from DP4+ donors, unstimulated (a small subset; their TCRs); test: flow cytometry ex vivo; 82428 evts in the dimer- CD4+ gate
# [4] = target: memory CD4+ T cells from DP4+ donors, unstimulated (a small subset; their TCRs); test: flow cytometry ex vivo; 159441 evts in the dimer- CD4+ gate
# [5] = target: memory CD4+ T cells from DP4+ donors, unstimulated (a small subset; their TCRs); test: flow cytometry ex vivo; 49894 evts in the dimer- CD4+ gate
# [6] = target: memory CD4+ T cells from DP4+ donors, unstimulated (a small subset; their TCRs); test: flow cytometry ex vivo; 73637 evts in the dimer- CD4+ gate
# [7] = target: memory CD4+ T cells from DP4+ donors, unstimulated (a small subset; their TCRs); test: flow cytometry ex vivo; 122665 evts in the dimer- CD4+ gate
# [8] = target: memory CD4+ T cells from DP4+ donors, unstimulated (a small subset; their TCRs); test: flow cytometry ex vivo; 50227 evts in the dimer- CD4+ gate
# [9] = target: memory CD4+ T cells from DP4+ donors, unstimulated (a small subset; their TCRs); test: flow cytometry ex vivo; 71402 evts in the dimer- CD4+ gate
# [10] = target: memory CD4+ T cells from DP4+ donors, unstimulated (a small subset; their TCRs); test: flow cytometry ex vivo; 160045 evts in the dimer- CD4+ gate
# [11] = target: memory CD4+ T cells from DP4+ donors, unstimulated (a small subset; their TCRs); test: flow cytometry ex vivo; 80783 evts in the dimer- CD4+ gate
# [12] = target: DR1-restricted TCR HA1.7
substance,measurement,setting,value
Control (DQ6^L114W/V143M+3reps dimer) (peptide-MHC),% dimer+ CD4+ cells,[1],0.1%
DP4^L112W/V141M dimer loaded with herpes simplex virus type-2-UL21283-302 (HSV-2-UL21283-302) (peptide-MHC),events in the dimer+ CD4+ gate,[2],6 evts
same,events in the dimer+ CD4+ gate,[3],1 evts
same,events in the dimer+ CD4+ gate,[4],1 evts
same,events in the dimer+ CD4+ gate,[5],1 evts
same,events in the dimer+ CD4+ gate,[6],8 evts
DP4^L112W/V141M dimer loaded with respiratory syncytial virus glycoprotein162-175 (RSV-GP162-175) (peptide-MHC),events in the dimer+ CD4+ gate,[7],10 evts
same,events in the dimer+ CD4+ gate,[8],1 evts
same,events in the dimer+ CD4+ gate,[9],25 evts
same,events in the dimer+ CD4+ gate,[10],37 evts
same,events in the dimer+ CD4+ gate,[11],4 evts
"DR1 dextramer (PE), Flu-HA306-318 (peptide-MHC)",percent multimer-positive CD4+ cells (number at the gate),[12],30.4%
